T1: GST-ATG8A, Q8LEM4
T1 chain: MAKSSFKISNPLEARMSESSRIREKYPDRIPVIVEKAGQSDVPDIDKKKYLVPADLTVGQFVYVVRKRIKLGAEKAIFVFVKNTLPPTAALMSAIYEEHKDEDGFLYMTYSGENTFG


Legend:
[1] = target: T1, GST-ATG8A, Q8LEM4; experiment: microscopy-based protein-protein interaction assay (on-bead binding, confocal); conditions: chain shown with the change; 1 μM C53 protein; glutathione-sepharose beads with GST-ATG8A; parent: est. 1.0; read off a plot
[2] = target: GST-GABARAP (human), O95166; experiment: microscopy-based on-bead protein-protein interaction assay; conditions: remark: other sources report otherwise
Chain of GST-GABARAP (human), O95166 (O95166 whole entry): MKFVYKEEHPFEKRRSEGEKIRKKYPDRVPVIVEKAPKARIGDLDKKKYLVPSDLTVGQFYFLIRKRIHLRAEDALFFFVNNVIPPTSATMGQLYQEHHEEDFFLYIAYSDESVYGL

Row | Binder | response (normalized fluorescence) [1] | percent less recruited than the wild type [2] [%]
1 | mCh-HsC53, Q96JB5 IDWG267WDGI; IDWG292WDGI; IDWG310WDGI (protein) MEDHQHVPIDIQTSKLLDWLVDRRHCSLKWQSLVLTIREKINAAIQDMPESEEIAQLLSGSYIHYFHCLRILDLLKGTEASTKNIFGRYSSQRMKDWQEIIALYEKDNTYLVELSSLLVRNVNYEIPSLKKQIAKCQQLQQEYSRKEEECQAGAAEMREQFYHSCKQYGITGENVRGELLALVKDLPSQLAEIGAAAQQSLGEAIDVYQASVGFVCESPTEQVLPMLRFVQKRGNSTVYEWRTGTEPSVVERPHLEELPEQVAEDAWDGIDFGVEAVSEGTDSGISAEAAGWDGIIFPESDSKDPGGDGWDGIDDAVALQITVLEAGTQAPEGVARGPDALTLLEYTETRNQFLDELMELEIFLAQRAVELSEEADVLSVSQFQLAPAILQGQTKEKMVTMVSVLEDLIGKLTSLQLQHLFMILASPRYVDRVTEFLQQKLKQSQLLALKKELMVQKQQEALEEQAALEPKLDLLLEKTKELQKLIEADISKRYSGRPVNLMGTSL | 1.2 | 
2 | mCh-HsC53^sAIM (W269A, W294A, W312A), Q96JB5 1-506 (natural protein) MEDHQHVPIDIQTSKLLDWLVDRRHCSLKWQSLVLTIREKINAAIQDMPESEEIAQLLSGSYIHYFHCLRILDLLKGTEASTKNIFGRYSSQRMKDWQEIIALYEKDNTYLVELSSLLVRNVNYEIPSLKKQIAKCQQLQQEYSRKEEECQAGAAEMREQFYHSCKQYGITGENVRGELLALVKDLPSQLAEIGAAAQQSLGEAIDVYQASVGFVCESPTEQVLPMLRFVQKRGNSTVYEWRTGTEPSVVERPHLEELPEQVAEDAIDAGDFGVEAVSEGTDSGISAEAAGIDAGIFPESDSKDPGGDGIDAGDDAVALQITVLEAGTQAPEGVARGPDALTLLEYTETRNQFLDELMELEIFLAQRAVELSEEADVLSVSQFQLAPAILQGQTKEKMVTMVSVLEDLIGKLTSLQLQHLFMILASPRYVDRVTEFLQQKLKQSQLLALKKELMVQKQQEALEEQAALEPKLDLLLEKTKELQKLIEADISKRYSGRPVNLMGTSL |  | 78

From PMC10183829, “Shuffled ATG8 interacting motifs form an ancestral bridge between UFMylation and autophagy” (The EMBO Journal, 2023)
